The values below come from patent publication US20250313631A1 (HUMMINGBIRD BIOSCIENCE PTE, published 2025).

Broadly, the Kd is the constant that tells how readily two partners part at equilibrium. What is called koff is the first-order rate constant of dissociation. Higher therefore signals fast dissociation. Usually kon stands for a measure of how fast the partners come together. The low end stands for slow association, the high end for fast association.

Like-named read-outs stand apart in the source and are kept apart here.

Experiment [1] deals with T1, mouse FcRn (His-tagged, Sino Biological CT009-H08H) (mouse, UniProt Q61559 22-297).
T1 construct: also called mFcRn
T1 sequence (looked up): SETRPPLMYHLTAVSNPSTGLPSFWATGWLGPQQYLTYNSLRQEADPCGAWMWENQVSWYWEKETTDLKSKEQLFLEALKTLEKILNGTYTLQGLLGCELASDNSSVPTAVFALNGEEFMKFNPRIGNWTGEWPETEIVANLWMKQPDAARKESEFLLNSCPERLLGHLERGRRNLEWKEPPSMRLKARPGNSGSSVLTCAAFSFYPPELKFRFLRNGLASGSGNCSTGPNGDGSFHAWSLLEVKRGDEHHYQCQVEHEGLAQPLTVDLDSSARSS
Kind of experiment: BLI (Octet QK384): His-tagged mFcRn on anti-Penta-HIS biosensor, antibody as analyte, PBS pH 5.8, global 1:1 fit. (In BLI a coated tip is dipped into the sample, and binding shifts an interference pattern.)

For experiment [2], the target named is T1, mouse FcRn (His-tagged, Sino Biological …). Kind of experiment: BLI summary table, mFcRn, pH 5.8.
Experiment [3] addresses T2, mouse FcγRIV (His-tagged, Sino Biological 50036-M08H) (mouse, UniProt A0A0B4J1G0 21-203).
T2 construct: also called mFcγRIV; not shown: the histidine tag (and any linker) of the Sino Biological construct 50036-M08H
T2 sequence: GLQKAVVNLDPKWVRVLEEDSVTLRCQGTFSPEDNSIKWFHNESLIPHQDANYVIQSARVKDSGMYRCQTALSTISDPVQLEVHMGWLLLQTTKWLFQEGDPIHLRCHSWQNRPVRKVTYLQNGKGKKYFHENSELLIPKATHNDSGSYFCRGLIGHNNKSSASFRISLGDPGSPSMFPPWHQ
As to the kind of experiment: BLI (Octet QK384): His-tagged receptor on anti-Penta-HIS biosensor, antibody as analyte, PBS pH 7.2.

Experiment [4] addresses T3, mouse FcγRIII (His-tagged, Sino Biological 50326-M08H) (mouse, UniProt P08508 31-215).
T3 construct: also called mFcγRIII
T3 sequence (looked up): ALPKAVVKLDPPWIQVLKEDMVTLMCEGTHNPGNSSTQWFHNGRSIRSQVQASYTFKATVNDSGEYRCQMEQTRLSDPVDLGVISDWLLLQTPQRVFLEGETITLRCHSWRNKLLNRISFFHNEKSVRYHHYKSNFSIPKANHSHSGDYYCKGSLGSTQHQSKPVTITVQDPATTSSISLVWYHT
The description is as above.

The target of experiment [5] is T1, mouse FcRn (His-tagged, Sino Biological …). As to the kind of experiment: BLI summary table, mFcRn, pH 5.8. This is another data set of the same source.
Experiment [6] shares this target. As to the kind of experiment: BLI summary table, mFcRn, pH 5.8. The source holds these as a separate data set.
The target in experiment [7] is T4, mouse FcγRIIb (His-tagged, Sino Biological 50030-M08H) (mouse, UniProt P08101 30-217).
T4 construct: also called mFcγRIIb
T4 sequence (looked up): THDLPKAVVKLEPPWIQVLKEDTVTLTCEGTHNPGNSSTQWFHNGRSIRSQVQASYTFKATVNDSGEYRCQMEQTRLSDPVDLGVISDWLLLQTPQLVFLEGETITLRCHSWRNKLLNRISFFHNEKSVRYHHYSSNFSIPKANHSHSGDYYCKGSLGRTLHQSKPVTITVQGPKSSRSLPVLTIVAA
Kind of experiment: BLI (Octet QK384): His-tagged receptor on anti-Penta-HIS biosensor, antibody as analyte, PBS pH 7.2.

Experiment [8] has as its target T2, mouse FcγRIV (His-tagged, Sino …). Kind of experiment: BLI summary table, mFcgRIV, pH 7.2.
The target in experiment [9] is T4, mouse FcγRIIb (His-tagged, Sino …). As to the kind of experiment: BLI (Octet QK384): His-tagged receptor on anti-Penta-HIS biosensor, antibody as analyte, PBS pH 7.2. The source holds these as a separate data set.
In experiment [10] the target is T2, mouse FcγRIV (His-tagged, Sino …). Kind of experiment: BLI (Octet QK384): His-tagged receptor on anti-Penta-HIS biosensor, antibody as analyte, PBS pH 7.2; kon = ND and KD = ND are printed beside it.
Experiment [11] concerns the target T1, mouse FcRn (His-tagged, Sino Biological …). As to the kind of experiment: BLI (Octet QK384): His-tagged mFcRn on anti-Penta-HIS biosensor, antibody as analyte, PBS pH 5.8, global 1:1 fit. This is another data set of the same source.

B1: 4M2-C12 mIgG2a LALA PG (antibody)
heavy: EVKLVESGPGLVKPSQSLSLTCTVTGYSITSDYAWNWIRQFPGNKLEWMGYITYSGNISYNPSLRSRISITRDTSKNQFFLQLNSVTPEDTATYSCARSLYYPWYFDVWGAGTTVTVSSAKTTAPSVYPLAPVCGDTTGSSVTLGCLVKGYFPEPVTLTWNSGSLSSGVHTFPAVLQSDLYTLSSSVTVTSSTWPSQSITCNVAHPASSTKVDKKIEPRGPTIKPCPPCKCPAPNAAGGPSVFIFPPKIKDVLMISLSPIVTCVVVDVSEDDPDVQISWFVNNVEVHTAQTQTHREDYNSTLRVVSALPIQHQDWMSGKEFKCKVNNKDLGAPIERTISKPKGSVRAPQVYVLPPPEEEMTKKQVTLTCMVTDFMPEDIYVEWTNNGKTELNYKNTEPVLDSDGSYFMYSKLRVEKKNWVERNSYSCSVVHEGLHNHHTTKSFSRTPGK
light: DIVITQTPAILSTSPGEKVTMTCRASSSVGYIHWYQQKPGSSPKPWIYATSNLASGVPARFSGSGSGTSNSLTITRVEAEDAATYYCQQWSSYPPITFGGGTKLEVKRADAAPTVSIFPPSSEQLTSGGASVVCFLNNFYPKDINVKWKIDGSERQNGVLNSWTDQDSKDSTYSMSSTLTLTKDEYERHNSYTCEATHKTSTSPIVKSFNRNEC
Turning to B1, the Kd in experiment [1] and in experiment [5] was 35.8 nM throughout. In addition, the dissociation rate constant (koff) in experiment [1] and in experiment [6] was 0.0097 s⁻¹ each time. Moreover, the kon in experiment [1] and in experiment [2] was 270000 M⁻¹ s⁻¹ in each case. For the same molecule, the binding result in experiment [3], in experiment [4] and in [7] was “no binding” in each case.

B2: 4M2-C12 mIgG2a NQ (antibody)
heavy chain: EVKLVESGPGLVKPSQSLSLTCTVTGYSITSDYAWNWIRQFPGNKLEWMGYITYSGNISYNPSLRSRISITRDTSKNQFFLQLNSVTPEDTATYSCARSLYYPWYFDVWGAGTTVTVSSAKTTAPSVYPLAPVCGDTTGSSVTLGCLVKGYFPEPVTLTWNSGSLSSGVHTFPAVLQSDLYTLSSSVTVTSSTWPSQSITCNVAHPASSTKVDKKIEPRGPTIKPCPPCKCPAPNLLGGPSVFIFPPKIKDVLMISLSPIVTCVVVDVSEDDPDVQISWFVNNVEVHTAQTQTHREDYQSTLRVVSALPIQHQDWMSGKEFKCKVNNKDLPAPIERTISKPKGSVRAPQVYVLPPPEEEMTKKQVTLTCMVTDFMPEDIYVEWTNNGKTELNYKNTEPVLDSDGSYFMYSKLRVEKKNWVERNSYSCSVVHEGLHNHHTTKSFSRTPGK
light chain: DIVITQTPAILSTSPGEKVTMTCRASSSVGYIHWYQQKPGSSPKPWIYATSNLASGVPARFSGSGSGTSNSLTITRVEAEDAATYYCQQWSSYPPITFGGGTKLEVKRADAAPTVSIFPPSSEQLTSGGASVVCFLNNFYPKDINVKWKIDGSERQNGVLNSWTDQDSKDSTYSMSSTLTLTKDEYERHNSYTCEATHKTSTSPIVKSFNRNEC
Turning to B2, the koff in [8] was found to be 0.348 s⁻¹; in experiment [10], 0.348 s⁻¹; in experiment [11], 0.0075 s⁻¹; in [6], 0.0075 s⁻¹. For the same molecule, the binding result in [9] is “no binding”. Moreover, the on-rate constant (kon) in experiment [2] and in [11] was 180000 M⁻¹ s⁻¹ throughout. Moreover, the dissociation constant (Kd) in experiment [11] and in experiment [5] was 42.5 nM each time.
